What was measured:
Conditions in all cases: both partners purified
[1] = target: T1, human HER3 extracellular domain (human, UniProt P21860 20-643); assay: SPR; assay C: Biacore T200, 25°C; HER3 bound to mAb208 captured by immobilised rabbit anti-mouse antibody on CM5; HRG1β injected at 105-1.3 nM, 60 µl/min, 5 min association, 10 min dissociation; 10 mM HEPES pH 7.4, 150 mM NaCl, 1 mM EDTA, Tween 20, 1 mg/ml carboxymethyldextran; evaluated by 1:1 Langmuir fit (apparent), two-state reaction model and Interaction Map
T1 construct: HER3 (ErbB3) receptor extracellular domain, human, MW 68 kDa; Printed MW 68 kDa; also called ECD3; HER3-ECD; source: from Dr. Birgit Bossenmaier, Roche Diagnostics GmbH, Penzberg
T1 sequence (P21860 20-643): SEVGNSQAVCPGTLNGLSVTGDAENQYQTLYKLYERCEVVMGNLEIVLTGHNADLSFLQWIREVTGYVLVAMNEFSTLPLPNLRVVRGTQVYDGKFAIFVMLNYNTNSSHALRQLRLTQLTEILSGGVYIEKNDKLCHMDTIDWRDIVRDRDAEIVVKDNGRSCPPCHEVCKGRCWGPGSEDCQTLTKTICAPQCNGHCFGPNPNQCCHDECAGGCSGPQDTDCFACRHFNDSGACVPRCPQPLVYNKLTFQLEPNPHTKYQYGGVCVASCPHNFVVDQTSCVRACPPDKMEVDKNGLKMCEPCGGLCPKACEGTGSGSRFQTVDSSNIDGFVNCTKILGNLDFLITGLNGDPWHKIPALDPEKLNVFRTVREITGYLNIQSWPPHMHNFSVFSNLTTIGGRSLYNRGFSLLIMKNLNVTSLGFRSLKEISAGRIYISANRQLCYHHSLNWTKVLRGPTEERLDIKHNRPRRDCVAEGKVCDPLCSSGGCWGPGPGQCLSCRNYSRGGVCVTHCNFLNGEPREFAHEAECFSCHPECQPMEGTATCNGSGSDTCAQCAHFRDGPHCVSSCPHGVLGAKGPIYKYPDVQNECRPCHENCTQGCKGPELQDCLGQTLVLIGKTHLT

HER3-Avi-biotin = target: T2, HER3-Avi-biotin (human, UniProt P21860 20-643, single biotin on the C-terminal Avi-Tag); assay: SPR; assay D: Biacore T200, 25°C; HER3-Avi-biotin captured via streptavidin on CAP chip, no mAb208; HRG1β injected at 105-1.3 nM, 60 µl/min, 5 min association, 10 min dissociation; same sample buffer; evaluated by 1:1 Langmuir fit, two-state reaction model and Interaction Map
T2 construct: HER3 (ErbB3) extracellular domain with C-terminal Avi-Tag, singly biotinylated, MW 70 kDa; Printed MW 70 kDa; It was captured through streptavidin on a Biotin CAPture chip; also called bi-ECD3; biotinylated HER3-Avi; source: gift of pRED, Roche Diagnostics GmbH (Dr. Jürgen Schanzer); not shown: Avi-Tag, C-terminal, kept
T2 sequence (P21860 20-643): as above

[2] = target: T1, human HER3 extracellular domain; assay: SPR; assay C: Biacore T200, 25°C; HER3 bound to mAb208 captured by immobilised rabbit anti-mouse antibody on CM5; HRG1β injected at 105-1.3 nM, 60 µl/min, 5 min association, 10 min dissociation; 10 mM HEPES pH 7.4, 150 mM NaCl, 1 mM EDTA, Tween 20, 1 mg/ml carboxymethyldextran; evaluated by 1:1 Langmuir fit (apparent), two-state reaction model and Interaction Map; remark: listed apart in the source

- stoichiometry N [1]: 0.5
- Kd (HER3-Avi-biotin): 0.38 nM
- koff (HER3-Avi-biotin): 0.0046 s⁻¹
- kon (HER3-Avi-biotin): 1.2e+07 M⁻¹ s⁻¹
- stoichiometry N (HER3-Avi-biotin): 0.84
- Kd [2]: 0.33 nM
- koff [2]: 0.04 s⁻¹
- kon [2]: 1.2e+08 M⁻¹ s⁻¹
- stoichiometry N [2]: 0.56
B1: human heregulin β1 (ligand, UniProt Q02297-6 20-246, looked up)
chain: SGKKPESAAGSQSPALPPRLKEMKSQESAAGSKLVLRCETSSEYSSLRFKWFKNGNELNRKNKPQNIKIQKKPGKSELRINKASLADSGEYMCKVISKLGNDSASANITIVESNEIITGMPASTEGAYVSSESPIRISVSTEGANTSSSTSTSTTGTSHLVKCAEKEKTFCVNGGECFMVKDLSNPSRYLCKCPNEFTGDRCQNYVMASFYKHLGIEFMEAEELYQK
notes: heregulin β1 (neuregulin-1, beta 1 isoform), human, MW 25 kDa; The printed MW of 25 kDa is larger than an EGF-like domain alone; also called HRG1β; Heregulin 1 beta; source: from Dr. Birgit Bossenmaier, Roche Diagnostics GmbH, Penzberg

Source: article PMC4319926, “Deciphering the Stepwise Binding Mode of HRG1β to HER3 by Surface Plasmon Resonance and Interaction Map” (PLoS ONE, 2015)
